The DeepSol protein solubility set

Test: soluble on expression in E. coli; label from the status in PepcDB or PDB records

Soluble on expression in E. coli, soluble:
MSLAKNIVFIGFMGSGKSTLARALAKDLDLVFLDSDFLIEQKFNQKVSEIFEQKRENFFREQEQKMADFFSSCEKACIATGGGFVNVSNLEKAGFCIYLKADFEYLKKRLDKDEISKRPLFYDEIKAKKLYNERLSKYEQKANFILNIENKNIDELLSEIKKVIKEGGSHHHHHH
ALMGGIVDVEGAQNSAEVEELARFAVDEHNKKENALLQFSRLVKAKQQVVSGIMHHLTVEVIEGGKKKVYEAKVWVQAWLNSKKLHEFSPI
MPGNSPHYGRWPQHDFTSLKKLRPQSVTSRIQPGSDVIVCAEMDEQWGYVGAKSRQRWLFYAYDSLRKTVVAHVFGERTMATLGRLMSLLSPFDVVIWMTDGWPLYESRLKGKLHVISKRYTQRIERHNLNLRQHLARLGRKSLSFSKSVELHDKVIGHYLNIKHYQLEHHHHHH

Soluble on expression in E. coli, not soluble:
MAHNNYLDLEMLFNECNAQHYENLGMFFKWLQQFAAHHEDPKITIKDFKGDKTSGEMILHVNTFTLFKYRQEFDMKVSALNDNGLGWKILFVDRSLGCN
MAHHHHHHMEVGQRCRLLVADCTYTHATNSSDDIHGNGFTVTGVVVGVRPHAEEPWRRLYYVHCTRIEFGTELARQRRKAAAPSWSGAPLSTIGSGTIHSCNELRAAGGSFVSNGGYHYRYDGWYDAFALTPLSADVALANNTAAMASAGSSPPEPPATVSEPRDDEGAASASAVSHLPGQHRDAPEEWVAAMERDTAVCEVVYLCYAFQPWFSAPYSALQYLALPEDDVCHSVYVCHRCLSPFFTREQYYVHLAGEYCRLRTPPGRLIYHDEDAGYKAFLVDGAKNLHYGRCLSLLSKQLIESKVLSNDVDLYEYVVVTIPRASLPYMPAALPSCTSAEQCGVANLVALSREGFRQAASDFDAEDWDGDAVMGYFSRLKHHPDHTLSCIVTLPMFQRTRVATFLLDVAYWMTRQRQRLCGCGFCGRSGGAISRPFSPHGQSLLLSYWRRALLRSLAEVAPLHRRASRTAQPELRFTLAELRALMDIPIHTNDMETLLLHSEFAFYQPAAANAAAARYSDDDDSASPPTSPTSARRRQRHERGSTSTSLKDSQASSGSKLSSSSAGGSAGNGGSSTSGARYTGTLVLEAALLEAAAELHTKTPRSCVMFDKRWLVKDGRGAYAYDTPYYHH
MKWLRLQDLPTDNSFAALPAEFYTRLQPRPPAAPRLLHANAEAAALIGLDPAEFSTQAFLDVFSGHAPLPGGDTLAAVYSGHQFGVWAGQLGEVRGPAGGWELQLKGAGMTPYSRMGDGRAVLRSSVREYLASEAMHGLGIPTTRSLALVVSDDPVMRETVETAAVVTRMAPSFVRFGSFEHWSARRQPEQLRVLADYVIDRFYPECRVAGAGRLDGEHGEILGLLAAVTRRTALLMADWQAVGFCHGVMNTDNMSILGLTLDYGPYGFMDTFQLGHICNHSDSEGRYAWNRQPSVGLWNLYRLASSLHTLAPDPEALRAVLDGYEAVFTQAFHGRMAGKLGLPQFLPEDETLLDDLLQLMHQQGADFTLAFRRLGEAVRGQRQPFEDSFIDRAAAGAWYDRLAARHASDGRAAQARAAAMDEVNPLYVLRNHLAEQAIRAAARGDAGEIDILLKLLRNPYKHQPGYDAYAGLAPDWAAGLEVSCSSLEHHHHHH
MIDHTHLRLFQFCDSQFPTGAFSHSFGLETYIQRNIIHDDHTFIAWLKMFLQEQLTYSDGLAMRLVYDALENDDTQKVLHIDKLMFVQNLPKETRVGAKQMGTRMVKLALELYNSPWIAWYHQQMQDKKAKLNPAICFTMLGHHLGVDIETIIDYYLYQNVSSLTQNAVRAIPLGQTAGQKIVTHMIPYIEGTRKQIFELKEADFGMTAPGLELNQMAHENVNVRIFISLEHHHHHH
MSTAAETTGGDIEPWEEVTPDAARRLLVAAVEAFAERGYHATTTRDIAGRAGMSPAALYIHYKTKEELLHRISRIGHTRAVAILRSAAQGEGSAAERLADAVSSFVRWHAGRRTTARVVQYELDALGPEAREEILTLRRQCDAAVRGIIDDGVAAGEFDVPDVKGTTLAVLSLCIDVARWFNVNGPRTPDEVGALYADLVLRMVGAEPSGATAQR
MGSDKIHHHHHHSRSTQGVRSLGFYNRHTGERGQGSYWIDGDYQTNTLNDFNHLLRDHRQNETAPMDKRLFDLLFSLKQTLQVDEDFHVISGYRSPKTNQMLANRSSAVAKKSYHMKGMAMDIALPDVNLKDLRDAAISLKLGGVGYYPSSGFVHVDTGPIRTW
